Measurements from patent US20230002488A1 (SYSTIMMUNE, published 2023).

Experiments:
human EGFR [1] = molecular target: T1, human EGFR (human, UniProt P00533 25-645); assay: BLI (Octet), GNC on AHC sensor, antigen as analyte, 1:1 fit
T1 construct: also called huEGFR; His-tagged human EGFR

human 4-1BB = molecular target: T2, human 4-1BB (human, UniProt Q07011 24-186); assay: BLI (Octet), GNC on AHC sensor, 100 nM antigen as analyte, 1:1 fit
T2 construct: Bought antigen; construct not described

human PD-L1 = molecular target: T3, human PD-L1 (human, UniProt Q9NZQ7 19-238); assay: as above
T3 construct: Bought antigen; construct not described

human EGFR [2] = molecular target: T1, human EGFR; assay: BLI (Octet), GNC on AHC sensor, His-tagged human EGFR as analyte, global 1:1 fit
human CD19 = molecular target: T4, human CD19 (human, UniProt P15391 20-291); assay: BLI (Octet), GNC on AHC sensor; strong binding, dissociation too slow to quantify KD
T4 sequence (looked up): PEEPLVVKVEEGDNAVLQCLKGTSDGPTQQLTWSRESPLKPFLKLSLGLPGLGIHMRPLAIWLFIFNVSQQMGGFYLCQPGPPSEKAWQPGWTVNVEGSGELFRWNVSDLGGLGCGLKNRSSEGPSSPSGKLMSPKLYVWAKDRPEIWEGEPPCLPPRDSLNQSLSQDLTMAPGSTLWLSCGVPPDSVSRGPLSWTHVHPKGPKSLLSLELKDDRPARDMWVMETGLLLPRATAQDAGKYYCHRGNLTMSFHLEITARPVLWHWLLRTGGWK

B1: SI-55P9 (antibody, human IgG1, kappa)
heavy: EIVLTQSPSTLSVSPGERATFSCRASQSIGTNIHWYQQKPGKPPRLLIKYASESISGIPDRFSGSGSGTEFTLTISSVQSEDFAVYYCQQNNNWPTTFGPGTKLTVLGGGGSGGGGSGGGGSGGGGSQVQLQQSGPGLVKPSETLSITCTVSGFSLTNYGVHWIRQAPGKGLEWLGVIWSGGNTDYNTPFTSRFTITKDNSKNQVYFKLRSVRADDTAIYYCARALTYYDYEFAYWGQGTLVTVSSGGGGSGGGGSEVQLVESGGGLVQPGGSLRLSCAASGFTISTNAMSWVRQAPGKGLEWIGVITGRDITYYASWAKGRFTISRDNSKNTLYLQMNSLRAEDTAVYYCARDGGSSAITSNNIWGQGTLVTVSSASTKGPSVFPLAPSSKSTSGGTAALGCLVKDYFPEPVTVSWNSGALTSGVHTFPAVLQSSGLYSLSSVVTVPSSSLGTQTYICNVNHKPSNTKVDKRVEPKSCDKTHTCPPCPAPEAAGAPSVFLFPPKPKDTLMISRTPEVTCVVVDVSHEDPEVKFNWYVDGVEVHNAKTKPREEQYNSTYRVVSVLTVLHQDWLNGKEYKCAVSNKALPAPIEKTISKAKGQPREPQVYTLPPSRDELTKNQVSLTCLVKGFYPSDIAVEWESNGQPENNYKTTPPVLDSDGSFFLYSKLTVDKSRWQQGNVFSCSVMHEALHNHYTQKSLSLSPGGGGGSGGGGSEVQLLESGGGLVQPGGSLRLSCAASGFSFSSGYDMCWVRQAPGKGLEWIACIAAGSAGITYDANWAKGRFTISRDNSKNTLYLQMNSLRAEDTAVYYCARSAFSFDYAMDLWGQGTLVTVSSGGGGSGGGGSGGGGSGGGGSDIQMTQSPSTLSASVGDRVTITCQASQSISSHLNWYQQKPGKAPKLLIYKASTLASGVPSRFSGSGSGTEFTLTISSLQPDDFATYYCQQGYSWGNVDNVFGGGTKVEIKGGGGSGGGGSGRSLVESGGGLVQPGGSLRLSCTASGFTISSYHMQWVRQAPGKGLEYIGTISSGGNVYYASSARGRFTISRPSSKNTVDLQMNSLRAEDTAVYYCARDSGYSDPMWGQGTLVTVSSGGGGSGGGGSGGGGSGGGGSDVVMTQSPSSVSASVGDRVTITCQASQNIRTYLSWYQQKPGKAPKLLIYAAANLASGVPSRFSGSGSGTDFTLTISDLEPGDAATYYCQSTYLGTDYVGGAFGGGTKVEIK
light: ENVLTQSPASLSASPGERVTITCSASSSVSYMHWYQQKPGQAPKLWIYDTSKLASGVPSRFSGSGSGNDHTLTISSMEPEDFATYYCFQGSVYPFTFGQGTKVTVLGGGGSGGGGSGGGGSGGGGSQVTLKESGPGLVQPGQTLRLTCAFSGFSLSTSGMGVGWIRQPPGKGLEWLAHIWWDDDKRYNPALKSRLTISKDTSKNQVYLQMNSLDAEDTAVYYCARMELWSYYFDYWGQGTLVTVSSGGGGSGGGGSDVVMTQSPSTLSASVGDRVTINCQASESISSWLAWYQQKPGKAPKLLIYEASKLASGVPSRFSGSGSGTEFTLTISSLQPDDFATYYCQGYFYFISRTYVNSFGGGTKVEIKRTVAAPSVFIFPPSDEQLKSGTASVVCLLNNFYPREAKVQWKVDNALQSGNSQESVTEQDSKDSTYSLSSTLTLSKADYEKHKVYACEVTHQGLSSPVTKSFNRGEC
notes: Penta-specific: D1 humanized anti-EGFR H7 scFv, D2 CD3, D3 PD-L1, D4 4-1BB, D6 CD19
Human EGFR [1]
  Kd: 7.41 nM
Human 4-1BB
  Kd: 7.55 nM
Human PD-L1
  Kd: 0.407 nM
Human EGFR [2]
  Kd: 7.41 nM
Human CD19
  binding result: binds
